Reference: the Human Domainome abundance scans (Beltran et al. 2025)
± gives the uncertainty stated by the source.

B1: Zinc finger homeobox protein 3, residues 2643 to 2698; numbered along this chain, Q15911 (parent)
chain: RLRTTITPEQLEILYQKYLLDSNPTRKMLDHIAHEVGLKKRVVQVWFQNTRARERK

Variants of: B1
Test: abundance fitness (aPCA) (normalised: wild type 0, dead -1); higher = more abundant; growth selection in yeast, the domain comes from the species named
Settings: Homo sapiens

RLRTTGTPEQLEILYQKYLLDSNPTRKMLDHIAHEVGLKKRVVQVWFQNTRARERK [I6G] and RLRTTITPEQLEILYQKYLLDSNPTRKMNDHIAHEVGLKKRVVQVWFQNTRARERK [L29N] are within error of each other in abundance fitness: -0.543 ± 0.11 for the first, -0.724 ± 0.16 for the second.

Going from RLRTTITPEQLEILYQKYLLDSNPTRKMLDHIAHEVALKKRVVQVWFQNTRARERK [G37A] to RLRTTITPEQLEILYQKYLLDSNPTRKMLDHIAHEVGLKKRVVQVWFQNTRARDRK [E54D], the abundance fitness rises from -0.366 ± 0.084 to 0.014 ± 0.097.

RLRTTITPEQLEILYQKYLLDSNPTRKMLDHIAHEVGLKKRVVQVWFQNTRARCRK [E54C] and RLRTTITPEQLEILYQKYLLDSNPTRKMLDHIAHEVGLKKRVVQVWFQNTRARFRK [E54F] are within error of each other in abundance fitness: -0.306 ± 0.1 for the first, -0.167 ± 0.088 for the second.

RLRTTITPEQLEIKYQKYLLDSNPTRKMLDHIAHEVGLKKRVVQVWFQNTRARERK [L14K] and RLRTTITPEQLEILYQKYLLDSNPTRKMLDHIAHEVGLKKRVVQVLFQNTRARERK [W46L] are within error of each other in abundance fitness: -0.899 ± 0.16 for the first, -0.758 ± 0.12 for the second.

RLRTTITPEQLEILYQKYLLDSNPTRKMLDHIAHEVGLKKRVVQVNFQNTRARERK [W46N] and RLRTTITPEQLEILYQKYLLDSDPTRKMLDHIAHEVGLKKRVVQVWFQNTRARERK [N23D] are within error of each other in abundance fitness: -0.902 ± 0.37 for the first, -0.336 ± 0.27 for the second.

Going from RLRTTITPEQLEILYQKYLLDSNPTRKMLDHIAHEVGLKKRVVQVWQQNTRARERK [F47Q] to RLRTTITPEDLEILYQKYLLDSNPTRKMLDHIAHEVGLKKRVVQVWFQNTRARERK [Q10D], the abundance fitness rises from -0.887 ± 0.16 to 0.224 ± 0.086.

RLRTTITPEQLEILYQKYLLDSNGTRKMLDHIAHEVGLKKRVVQVWFQNTRARERK [P24G] and RLRTTITPEQLEILYQKYLLDSNITRKMLDHIAHEVGLKKRVVQVWFQNTRARERK [P24I] are within error of each other in abundance fitness: -0.857 ± 0.088 for the first, -0.747 ± 0.17 for the second.

First: RLRTTITPEQLEILYQKYLLDSNPGRKMLDHIAHEVGLKKRVVQVWFQNTRARERK [T25G]
Second: RLRTTITPEQLEILYQKYLLDSNPCRKMLDHIAHEVGLKKRVVQVWFQNTRARERK [T25C]
The abundance fitness of the first is lower: -0.394 ± 0.074 for the first, -0.191 ± 0.12 for the second.

Compared with RLRTTITPEQLEILYQKYLLDSNPTRKMLDHIAHEVGLKKRVVQVWFQNTRIRERK [A52I], RLRTTITPEQLEILYQKYLLDSNPTRKMLDDIAHEVGLKKRVVQVWFQNTRARERK [H31D] is higher in abundance fitness: -0.639 ± 0.18 for the first, 0.348 ± 0.1 for the second.

Compared with RLRTTITPEQLEILYQKYLLDSNPTRKMLDHIAHEVGLKKRVVQVWFPNTRARERK [Q48P], RLRTTITPHQLEILYQKYLLDSNPTRKMLDHIAHEVGLKKRVVQVWFQNTRARERK [E9H] is higher in abundance fitness: -0.615 ± 0.15 for the first, -0.229 ± 0.082 for the second.

Going from RLRTTITPEQLKILYQKYLLDSNPTRKMLDHIAHEVGLKKRVVQVWFQNTRARERK [E12K] to RLRTTITPEQLEILYQKYLLDHNPTRKMLDHIAHEVGLKKRVVQVWFQNTRARERK [S22H], the abundance fitness rises from -0.625 ± 0.21 to -0.24 ± 0.17.

RLRTTITPEQLEILYQKYLLDSNPTRKMLDHIAHEVGSKKRVVQVWFQNTRARERK [L38S] and RLRTTITPEQLEILYQKYLLDSNPTRKMLDHIAHEVGIKKRVVQVWFQNTRARERK [L38I] are within error of each other in abundance fitness: -0.601 ± 0.099 for the first, -0.786 ± 0.23 for the second.

RLRTTITPEQLEILYQKYLLDSNPTRKMLDHIAHEVGLKKRVVQVWFQATRARERK [N49A] and RLRTTITPEQLEILYQKYLGDSNPTRKMLDHIAHEVGLKKRVVQVWFQNTRARERK [L20G] are within error of each other in abundance fitness: -0.2 ± 0.093 for the first, -0.049 ± 0.086 for the second.

First: RLRTTITPEQLEILYQKYLFDSNPTRKMLDHIAHEVGLKKRVVQVWFQNTRARERK [L20F]
Second: RLRTTITPEQLEILYQKYLLDSNPTRKMLDHKAHEVGLKKRVVQVWFQNTRARERK [I32K]
The abundance fitness of the first is higher: -0.111 ± 0.13 for the first, -0.807 ± 0.14 for the second.

RLRTTITPEQLEILYQKYLLLSNPTRKMLDHIAHEVGLKKRVVQVWFQNTRARERK [D21L] and RLRTYITPEQLEILYQKYLLDSNPTRKMLDHIAHEVGLKKRVVQVWFQNTRARERK [T5Y] are within error of each other in abundance fitness: -0.553 ± 0.11 for the first, -0.319 ± 0.24 for the second.

Compared with RLRTIITPEQLEILYQKYLLDSNPTRKMLDHIAHEVGLKKRVVQVWFQNTRARERK [T5I], RLRTKITPEQLEILYQKYLLDSNPTRKMLDHIAHEVGLKKRVVQVWFQNTRARERK [T5K] is lower in abundance fitness: -0.165 ± 0.14 for the first, -0.593 ± 0.23 for the second.

RLRTTITPEQLEILYQKYLLDSNPTRKMLDHIAHEVGLKKRVVQKWFQNTRARERK [V45K] and RLRTTITPEQLEILYQKYLLDSNPTRKMLWHIAHEVGLKKRVVQVWFQNTRARERK [D30W] are within error of each other in abundance fitness: -0.399 ± 0.12 for the first, -0.442 ± 0.12 for the second.

Going from RLRTTITMEQLEILYQKYLLDSNPTRKMLDHIAHEVGLKKRVVQVWFQNTRARERK [P8M] to RLRTTITPEQLEILYQKYLLDSNPTRKMLDHIAHEVGLKKRVTQVWFQNTRARERK [V43T], the abundance fitness falls from 0.57 ± 0.15 to -0.548 ± 0.11.

RLRTTITPEQLEILYQKYYLDSNPTRKMLDHIAHEVGLKKRVVQVWFQNTRARERK [L19Y] and RLRTTITPEQLEILYQKYILDSNPTRKMLDHIAHEVGLKKRVVQVWFQNTRARERK [L19I] are within error of each other in abundance fitness: -0.339 ± 0.16 for the first, -0.583 ± 0.17 for the second.

RLRTTITPEQLEILYQKYLLDSNPTRKMLDHIAHEVGLKKRVVQVWFQNTRAREIK [R55I] and RLRTTITPEQLEILYVKYLLDSNPTRKMLDHIAHEVGLKKRVVQVWFQNTRARERK [Q16V] are within error of each other in abundance fitness: 0.142 ± 0.18 for the first, 0.357 ± 0.08 for the second.

RLRTTITPEQLEILYQKYLLDSNPTRKMLDHIAHEVGLKKRVVQVWFQNRRARERK [T50R] and RLRTTITPEQLEILYQKYLLDSNPTRKMLDHIAHEVGLKKRVVQVWFQNTRAKERK [R53K] are within error of each other in abundance fitness: -0.037 ± 0.072 for the first, -0.045 ± 0.12 for the second.

RLRTTISPEQLEILYQKYLLDSNPTRKMLDHIAHEVGLKKRVVQVWFQNTRARERK [T7S] and RLRTTINPEQLEILYQKYLLDSNPTRKMLDHIAHEVGLKKRVVQVWFQNTRARERK [T7N] are within error of each other in abundance fitness: -0.169 ± 0.092 for the first, -0.338 ± 0.2 for the second.

Compared with SLRTTITPEQLEILYQKYLLDSNPTRKMLDHIAHEVGLKKRVVQVWFQNTRARERK [R1S], RLRTTITPEQLEILYQKYLLDSNPTRKMLDHIAHLVGLKKRVVQVWFQNTRARERK [E35L] is lower in abundance fitness: 0.131 ± 0.15 for the first, -0.205 ± 0.079 for the second.

In the case of RLRTTITPEQLEILYQKVLLDSNPTRKMLDHIAHEVGLKKRVVQVWFQNTRARERK [Y18V], the abundance fitness is reported as -0.644 ± 0.1.
